# Data published in article PMC2686699, “The interaction between the measles virus nucleoprotein and the Interferon Regulator Factor 3 relies on a specific cellular environment” (Virology Journal, 2009).
# B1: IRF-3 RD (regulatory domain of IRF-3, residues 175-427, N-terminal hexahistidine tag; IRF-3 RDHN) (domain or fragment, human, UniProt Q14653 175-427, looked up)
# chain: SLDNPTPFPNLGPSENPLKRLLVPGEEWEFEVTAFYRGRQVFQQTISCPEGLRLVGSEVGDRTLPGWPVTLPDPGMSLTDRGVMSYVRHVLSCLGGGLALWRAGQWLWAQRLGHCHTYWAVSEELLPNSGHGPDGEVPKDKEGGVFDLGPFIVDLITFTEGSGRSPRYALWFCVGESWPQDQPWTKRLVMVKVVPTCLRALVEMARVGGASSLENTVDLHISNSHPLSLTSDQYKAYLQDLVEGMDFQGPGES
# notes: Human IRF-3, regulatory domain, residues 175-427; Dimer or monomer according to the buffer (monomer in buffers C and D); Also made uniformly 15N-labelled for NMR; source: E. coli Rosetta [DE3], purified (Talon IMAC, Hi-Trap Q, Superdex 200); not shown: His6, N-terminal, kept
# Molecular target: the molecule itself
# Assay: SEC-MALS; data not shown; purified IRF-3 RD in various buffers, including 10 mM sodium phosphate pH 7 or buffer A (50 mM sodium phosphate pH 8, 300 mM NaCl, 10 mM imidazole); the method is told only in general (SEC-MALS in various buffers)
protein,measurement,value
B1,stoichiometry N,2
